The source of these data is US20020160957A1.

No end group written: not given here. *: point of attachment. 125I = [125I]*

The target in this assay is cell surface binding site for EMAP II N-terminal peptides on human mononuclear phagocytes (MPs); ≈73 kDa MP surface polypeptide. The assay is described as follows: radioligand binding on human MPs, 4 C, one-site model.

With RIGRIVTAKY(125I) [^125I-…], the Kd – broadly, a measure of binding affinity in units of concentration – was 190 pM and the N (molecules of peptide bound per cell) (molecules of peptide bound per cell) came out at 8300.
